Source: the nanobody polyreactivity screen of Harvey et al. (2022)

test: yeast display, Sf9 membrane polyspecificity reagent, FACS + sequencing; frameworks hold sequencing errors
Procedure, shortened: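 Genes from sorted yeast were amplified by colony PCR, read by MiSeq 2 × 250 sequencing and filtered on CDR length. These cells carried a synthetic nanobody library in Saccharomyces cerevisiae BJ5465 and were sorted by FACS into low and high (top ~1%) gates on anti-HA and streptavidin fluorescence. Polyreactivity is labelled according to the gate of origin.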

Sequence	polyreactivity (PSR sort gate)
QVQLVESGGGLVQAGGSLRLSSAASGSTFFTNALGWYRPAPGKERELGAVITKRGGSTYYADSVKGRFTISRDNAKNPVYLQMNSLKPEDTAVYYCAARIPKQQGYGYWGQGTQVTVSS	high polyreactivity
QVQLVESGGGLVQAGGSLRLSSAASGSTFGPYAMGWYRQAPGKERELVATITRNGGSTYYADSVKGRFTISRDYAKNTVYLQMNSLKPEETAFYSCNAEGRWSSFTQRMDYWGQGTQVNVSS	low polyreactivity
QVQLVESGGGLVQAGGSLRLSSAASGSTFLRYAMGWYRQAPGKERELVAAISYSGGSTYYADSVKGRFTISRDNAKNTVYLQMNSLIPQDTAVNYCNAGVFANDNGGRRDHFTWEYEYWGQGTQVTVSS	low polyreactivity
QVQLVESGGGLVQAGGSLRLSSAASGSTFRYNTMGWYRQAPGKERELVAAINISSSSTYYADSVKGRFTISRDNAKNTVYFQINSLKPEDTAVYYCAKRDYVPIATDENDDYWGQGTQVTVSS	low polyreactivity
QVQLVESGGGLVQAGGSLRLSSAASGSTFSDYAMGWYRQAPGKERELVAAISVSDGSTYYADSVKGRFTISRDNAKNTVYLQMNSLKPEDTAVYYCAAEYPYFVYSYFRFDYWGQGTQVTVSS	low polyreactivity
QVQLVESGGGLVQAGGSLRLSSAASGSTFTRNGMGWYRQAPGKERELVAVISGSSSSTYYADSVKGRFTISRDNAKNTVYLQMNSLKPEDTAVYYCAARRYYGYAQYYYWGQGTQVTVSS	high polyreactivity
QVQLVESGGGLVQAGGSLRLSSAASGSTFVVNAMGWYRQAPGKERELVAAITQSGGSTFYADSVKGRFTISRDNAKNTVYLQMNSLKPEDTAVYYWGQGTQLTVSS	low polyreactivity
QVQLVESGGGLVQAGGSLRLSSAASGSTFWNNVMGSYRQATGKERELVAAITYSGGITYADSVKGRFTISRDNAKNTVYLEMNSLKPEDTAVYYCAADSKYKYDSWGQGTQVTVSS	low polyreactivity
QVQLVESGGGLVQAGGSLRLSSAASGSTFYYNSMGWYRQAPGKETELVAGITRGGSTNYADSVKGRFTISRDNAKNTVYLQMNSLKPEDSAVYYCAKRTYFRGSSGYYYWGQGTQVTVSS	high polyreactivity
QVQLVESGGGLVQAGGSLRLSSAASGSTSDNAMGWYRQAPGKEMEFVAAITSSGGSTTYADSVKGRFTISRDNAKNTVYLQMNSLKPEDTAVYYCNAGRVYYSNGYDYWGQGTQVTVSS	low polyreactivity
QVQLVESGGGLVQAGGSLRLSSAASGSTYVGYTMGWYRQAPGKERELVAAITRRSGSTYYAVSVKGRFTISRDNAKNTVYLQLNSLKPEDTAVYYCAKDFSRYSRVAHTEHDYWGQGTQVTVSS	high polyreactivity
QVQLVESGGGLVQAGGSLRLSSAASGYFNFFYAMGRYRQAPGKERELVASITYRGGSTYYADSVKGRFTLSRDNSKNTVYLQMNRLKPEDTAVYYCNVDGGGPLGPQGFPFDYWGQGTQVTVSS	low polyreactivity
QVQLVESGGGLVQAGGSLRLSSAASGYIFQYTAMGCYRQAPGKVRELVAAIRYRGTSTYYADSVKGRFTISRDNAKNTVYLQRNSLKPEDTAVYYCAADRVPGRGFFRYGYWGQGTQVTVSS	high polyreactivity
QVQLVESGGGLVQAGGSLRLSSAASGYTFGFYGLGWYRQAPGKERELVAAISRSGGGSTYYADSVKGRFTISRDNAKNSVYLQMNSLKPEDSAVYYCNRDFDDEMWGQGTQVTVSS	low polyreactivity
QVQLVESGGGLVQAGGSLRLSSAASVIIFSNNAMGWSRQAPGKERELVAAISRSGGSTYYADSLKGRFTISRDNAKNTVYLQMNSLKPEETAVYYCAARARSRYDSWGQGTQVTVSS	low polyreactivity
QVQLVESGGGLVQAGGSLRLSSADSGLTIKYYAMGWYRQAPGKERELVASILQSGSSTYYADSVKGRFTISRDYAKNTFYLQMNSMKPEDTAVYYCSAPRYCRSYGYDYWGQGTQVTVSS	high polyreactivity
QVQLVESGGGLVQAGGSLRLSSAGSGRTFLANAMGWYRQAPGKEREFVAAIDWRTGSTYYADSVKGRFTISRDNAKNTVYLLMNSLKPEDTAVYYCAKDSSSYYYAHFYDWGQGTQVTVSS	high polyreactivity
QVQLVESGGGLVQAGGSLRLSSAHSAIIFCLNSMGWYRQEPGKERELVAAITITDGSTYYADSVKGRFTISRDNAKNTVYLQMNSLKPEDTAVYYCNADAIVSPYRLWTVTFYYWGQGTQVTVSS	low polyreactivity
QVQLVESGGGLVQAGGSLRLSSASSGRIFAIYVMGWYRQAHGKERELVAAITSGGNTNYADSVKGRFTISRDNAKNTVYLQINSLKPEDSAVYYCAAFYYRRSFTLSYSSFDYWGQGTQVTVSS	low polyreactivity
QVQLVESGGGLVQAGGSLRLSSAVSGNTFGPYDMGWYRQAPGKERELVAGNTSGGSTYYADSVKGRFTISLDNAMNTVYLQMNSLKPEDTAVYYCAADYFLWVYWYDYWGQGTQVTVSS	high polyreactivity
QVQLVESGGGLVQAGGSLRLSSGASGSTFVTYAMGWYRQAPGKEREFVAAISSTGTGRTYYADSVKGRFTISRDNAKNPVYLQMNSLKPEDTAVYYCAADLYGTYDYWGQGTQVTVSS	low polyreactivity

Sequence	polyreactivity (PSR sort gate)
QVQLVESGGGLVQAGGSLRLSSPASGFTFYYKGMGWYRQAPGKERELVATITSGGSTYYADSVKGRFTISSDNAKNTVYLQMNSLKPEDTAVYYCNRRISWRYVPTYDYWGQGTQVTVSS	high polyreactivity
QVQLVESGGGLVQAGGSLRLSSPASGRIFITNAMGWYRQAPGKERELVASITVSGDSTYYADSVKGRFTISRDNAKNPVYLQMNSLKPEDTAVYYCAADYYALDKVLGNNYWGQGTQVTVSS	low polyreactivity
QVQLVESGGGLVQAGGSLRLSSTASGFTFKLYAMGWERHATGKERELVAAISSYGGRTYYADSVKGRFTISRDNAKNTVYLQMKSLKPEDTAVYYCKAVRTVNDYHYDYWGQGTQVTVSS	high polyreactivity
QVQLVESGGGLVQAGGSLRLSWAASGFTFDSNAMGWSRPAPGKEREVVAAISWSGASTYADSVKGRFTISRDNAKNTVYLQMNSLKPEDTAVYYCAADDEDVLFDYWGQGTQVTVSS	low polyreactivity
QVQLVESGGGLVQAGGSLRLSWAASGFTFGVNTMGWYRQAPGKERELVADISSGGRTNYADSVKGRFTISRDNAKNTVYLQMNRLKPEDTAVYYCAADNYSGTETDLTTLLDYWGQGTQVSVSS	low polyreactivity
QVQLVESGGGLVQAGGSLRLSWAASGFTLTRNAMGWYTQAPGKERELVAAISWSGGTTYYADSVKGRFTISRDNAKNPVYLQMNSLKRDDTAVYYCNTASWRAQYYYWGQGTRVTVSS	high polyreactivity
QVQLVESGGGLVQAGGSLRLSWAASGRIFGRYAMGWYRQAPGKERELVAAISYSGGSTYYADSVKGRFTISRDNAKNTVYLQMNSLKPEDTAVFYCNRYPTYGRTSYVTYYYWGQGTQVTVSS	high polyreactivity
QVQLVESGGGLVQAGGSLRLSWAASGRIIHYNVMGWYRQPPGKERDLVAAIRGGGRSTYYADSVKGRFTISRDNAKNTVYLQMNSLKPEDTAVYYCAKSLSQNTYYHQGYYDDNYWGQGTQVTVSS	low polyreactivity
QVQLVESGGGLVQAGGSLRLSWAASGSIFQYVYAMGWYRQAPGKERELVATITWSGGSTYYSDSVKGRFTISRDNAKNTVYLQMNSLKPEDTAVYYCAAESIYYPVAQYYYSFEYWGQGTQVTVSS	low polyreactivity
QVQLVESGGGLVQAGGSLRLSWAASGSTFDGYAMGWYRQAPGKERELVAAITRSGGSTYYADSVKGRFTISRDNAKITVYRQINSLKPEDTEVYYSNKYGYKGCVGYDYWGKGTQVTVSS	high polyreactivity
QVQLVESGGGLVQAGGSLRLSWAASGSTFYAYAMGCYRQSPGNERELVATISWSGGSTYADSVKGRFTISRDNAKYTVYLQMNSMTPEDTAVYYCNGSGAFYPTQVHPGYTLWSYDDWGQGTQVTVSS	low polyreactivity
QVQLVESGGGLVQAGGSLRLSWAAYGRIVKYAMGWYREPPGKERELVAAISGSGGTTYYADSVKGRLTISRDNAKNTVEFHMKSLKPEDTAVYYCAASRPRPPSSRRMVYWGQGSQVTVSS	high polyreactivity
QVQLVESGGGLVQAGGSLRLSYAASGRTFYRYAMGWYRQAPGKERELVAVITSGSRTKYADSVKGRFTISRDNAKNTVYLQMNSLKPEDTAFYYCAARGLALEGKSSGEYWGQGTQVTVSS	high polyreactivity
QVQLVESGGGLVQAGGSLRLTCAASGFIFCSYAMRWYRQAPGKERELVAAISFRGGSTFYADSVKGRFTISRDNAKNTVYLQMNSLKPEDTAVYYCNKAAYSIHSGLSYYHWGQGTQVTVSS	low polyreactivity
QVQLVESGGGLVQAGGSLRLTCAASGFIFEEYAKGWYRPAPGKERELVAAISRRGGSTYYADSVKGRFTISRDNATNTVYLQMNSLKPEDTAVDYCATDRRYNYWGQGTQVTVSS	high polyreactivity
QVQLVESGGGLVQAGGSLRLTCAASGFIFNYNTMGWYRQAPGKERELVAGINWSGTRTYYADSVKGRFTISRDNAKNTDYLQMNSLKPEDTAVYYCNAYTQQYRSYGYWGQGTQVTVSS	high polyreactivity
QVQLVESGGGLVQAGGSLRLTCAASGFIFPWNAMAWFRQAPRKERELVAAISFSGGSTYYADSVKGRFTISRDNAKNTVYLQMNSLKPEDTAVYYCAKRTWDLRRTRHYYWGQGTQVTVSS	low polyreactivity
QVQLVESGGGLVQAGGSLRLTCAASGFIFSLNAMGWYRQAPGKERELVAAISRCGVRTYYADSVKGRFSISRDNAKNTVYLQMNSLKPEDTAVYYCATAGPYYYYSGPQYDYWGQGTHVTVSS	high polyreactivity
QVQLVESGGGLVQAGGSLRLTCAASGFIFTYNAMGWYRQAPGKERELVAAISWSGSRTNYADTVKGRFTISRDNAKHTVYLQMNSLKPEDTAVFYCAAKYKYRTYNYWGQGTQVTVSS	high polyreactivity
QVQLVESGGGLVQAGGSLRLTCAASGFIFTYPNAKGWNIQAPGKERELVAAISWRGGGTYYADSVKGRFTISRDNAKNTVYLQMNSLKPEDTAVYYCADYVPAPRRTYNYWGQGTQVTVSS	high polyreactivity
